Experimental data from publication PMC7949082, “Mutant BIN1-Dynamin 2 complexes dysregulate membrane remodeling in the pathogenesis of centronuclear myopathy” (The Journal of Biological Chemistry, 2020).

Target: the molecule itself
Experiment: electron microscopy; purified dynamin 2 on lipid nanotubes, in the absence of GTP

B1: purified recombinant wild-type human dynamin 2 (His-tagged) (enzyme, UniProt P50570-1 1-870, looked up)
chain: MGNRGMEELIPLVNKLQDAFSSIGQSCHLDLPQIAVVGGQSAGKSSVLENFVGRDFLPRGSGIVTRRPLILQLIFSKTEHAEFLHCKSKKFTDFDEVRQEIEAETDRVTGTNKGISPVPINLRVYSPHVLNLTLIDLPGITKVPVGDQPPDIEYQIKDMILQFISRESSLILAVTPANMDLANSDALKLAKEVDPQGLRTIGVITKLDLMDEGTDARDVLENKLLPLRRGYIGVVNRSQKDIEGKKDIRAALAAERKFFLSHPAYRHMADRMGTPHLQKTLNQQLTNHIRESLPALRSKLQSQLLSLEKEVEEYKNFRPDDPTRKTKALLQMVQQFGVDFEKRIEGSGDQVDTLELSGGARINRIFHERFPFELVKMEFDEKDLRREISYAIKNIHGVRTGLFTPDLAFEAIVKKQVVKLKEPCLKCVDLVIQELINTVRQCTSKLSSYPRLREETERIVTTYIREREGRTKDQILLLIDIEQSYINTNHEDFIGFANAQQRSTQLNKKRAIPNQGEILVIRRGWLTINNISLMKGGSKEYWFVLTAESLSWYKDEEEKEKKYMLPLDNLKIRDVEKGFMSNKHVFAIFNTEQRNVYKDLRQIELACDSQEDVDSWKASFLRAGVYPEKDQAENEDGAQENTFSMDPQLERQVETIRNLVDSYVAIINKSIRDLMPKTIMHLMINNTKAFIHHELLAYLYSSADQSSLMEESADQAQRRDDMLRMYHALKEALNIIGDISTSTVSTPVPPPVDDTWLQSASSHSPTPQRRPVSSIHPPGRPPAVRGPTPGPPLIPVPVGAAASFSAPPIPSRPGPQSVFANSDLFPAPPQIPSRPVRIPPGIPPGVPSRRPPAAPSRPTIIRPAEPSLLD
notes: human dynamin 2 (NM_001005360), wild type, from the same Entry clone as the mammalian constructs; The vector is named pET15b in one paragraph and pET23b in another; no removal of the His tag is told; also called Dynamin 2 WT; DNM2WT
binding result: binds
